Experimental data taken from article PMC5007356.

Legend:
[1] = target: GFP-Spd2 (Drosophila melanogaster); experiment: co-IP; anti-GFP immunoprecipitation with GFP-Trap-A beads from D. mel-2 cell lysates, 2 h at 4 °C; 10 mM Tris-HCl pH 7.5, 150 mM NaCl, 0.5 mM EDTA, NP40; immunoblot; band intensities quantified in ImageJ
[2] = target: GFP-Cdc27 (Drosophila melanogaster); experiment: as above

precipitation efficiency (percent of input co-precipitated) [1] | co-IP efficiency [2] | Molecule
4.55% | – | Cdc27 (endogenous) (natural protein)
14.5% | – | Fzr (endogenous) (from UniProt O18402 1-478) (natural protein)
– | 2.7e-07 | Spd2 (endogenous) (from UniProt Q9VV79 1-1146) (natural protein)
2.43% | – | Fzy (endogenous) (natural protein) MSQFNFVSDLQNALIMDGETRGPAPRWKKKLEASLNGSVNTTRSVLSVSYNTSFSGVQAPTKTPGKSSEGKTKKSNTTPSKTPGGGDRFIPNRAATNFELAHFLVNKDSGDKSDEENDKATSSNSNESNVQASAHKGDRQKLISEVAQVGDSKGGRILCYQNKAPAAPETHNNPLKVVYSIKTPISTKSGSRYIPTTSERILDAPDFINDYYLNLMDWSADNIVAVALGSCVYLWNAQTGNIEQLTEFEEGDYAGSLSWIQEGQILAIGNSTGAVELWDCSKVKRLRVMDGHSARVGSLAWNSFLVSSGSRDGTIVHHDVRAREHKLSTLSGHTQEVCGLKWSTDFKYLASGGNDNLVNVWSAASGGVGTATDPLHKFNDHQAAVRALAWCPWQPSTLASGGGTADRCIKFWNVNNGTLMKSVDSKSQVCSLLFSRHYKELISAHGFANNQLTIWKYPTMVKQADLTGHTSRVLQMAMSPDGSTVISAGADETLRLWNCFAPDPLASKKAVSTSKGKQSVFRQSIR
